In this data set the target is hAgo1 (Homo sapiens, UniProt Q9UL18 1-857). Nature of the data set: X-ray crystallography.

Consider UGAGGUAGUAGGUUGUAUAGUU (ssRNA, 5' phosphate) [let-7 22mer guide], for which the binding result is “binds”.

These data come from PMC3769929.
